B1: mRNA-splicing (parent)
chain: AGUUGCUGCUGGGAGCUCCAGCACAGUGAAAUGGACAGAAGGGCAGAGCAA

Variants of: B1
Assay: exon inclusion enrichment index; higher = more inclusion; WT1 exon 5 minigene, HEK293

Going from AGUUCACACAGGGAGCUCCAGCACAGUGAAAUGGACAGAAGGGCAGAUCAA [G5C C6A U7C G8A U10A G48U] to AGUUCACACAGGGAGCUCCAGCACAGUGAAAUGGACAGAAGGGCAGAACAA [G5C C6A U7C G8A U10A G48A], the “exon inclusion enrichment index” value rises from 0.218 to 0.25.

First: AGUUCACACAGGGAGCUCCAGCACAGUGAAAUGGACAGAAGGGCAGACCAA [G5C C6A U7C G8A U10A G48C]
Second: AGUUCACACAGGGAGCUCCAGCACAGUGAAAUGGACAGAAGGUUAGAGCAA [G5C C6A U7C G8A U10A G43U C44U]
The “exon inclusion enrichment index” value of the first is higher: 0.213 for the first, 0.0172 for the second.

First: AGUUCACACAGGGAGCUCCAGCACAGUGAAAUGGACAGAAGGUAAGAGCAA [G5C C6A U7C G8A U10A G43U C44A]
Second: AGUUCACACAGGGAGCUCCAGCACAGUGAAAUGGACAGAAGGUGAGAGCAA [G5C C6A U7C G8A U10A G43U C44G]
The “exon inclusion enrichment index” value of the first is lower: 0.00933 for the first, 0.112 for the second.

Compared with AGUUCACACAGGGAGCUCCAGCACAGUGAAAUGGACACCAGGGCAGAGCAA [G5C C6A U7C G8A U10A G38C A39C], AGUUCACACAGGGAGCUCCAGCACAGUGAAAUGGACACGAGGGCAGAGCAA [G5C C6A U7C G8A U10A G38C A39G] is lower in “exon inclusion enrichment index” value: 0.136 for the first, 0.111 for the second.

First: AGUUCACACAGGGAGCUCCAGCACAGUGAAAUGGACACUAGGGCAGAGCAA [G5C C6A U7C G8A U10A G38C A39U]
Second: AGUUCACACAGGGAGCUCCAGCACAGUGAAAUGGACAGAAGGGCAAGGCAA [G5C C6A U7C G8A U10A G46A A47G]
The “exon inclusion enrichment index” value of the first is lower: 0.00505 for the first, 0.0332 for the second.

Going from AGUUCACACAGGGAGCUCCAGCACAGUGAAAUGGACAGAAGGGCAAUGCAA [G5C C6A U7C G8A U10A G46A A47U] to AGUUCACACAGGGAGCUCCAGCACAGUGAAAUGGACAGAAGGGCAACGCAA [G5C C6A U7C G8A U10A G46A A47C], the “exon inclusion enrichment index” value rises from 0.159 to 0.439.

Going from AGUUCACACAGGGAGCUCCAGCACAGUGAAAUGGACAGAAGGACAGAGCAA [G5C C6A U7C G8A U10A G43A] to AGUUCACACAGGGAGCUCCAGCACAGUGAAAUGGACAGAAGGCCAGAGCAA [G5C C6A U7C G8A U10A G43C], the “exon inclusion enrichment index” value falls from 0.595 to 0.238.

Going from AGUUCACACAGGGAGCUCCAGCACAGUGAAAUGGACAGAAGGUCAGAGCAA [G5C C6A U7C G8A U10A G43U] to AGUUCACACAGGGAGCUCCAGCACAGUGAAAUGGACAGAAGGGCAUGGCAA [G5C C6A U7C G8A U10A G46U A47G], the “exon inclusion enrichment index” value rises from 0.0948 to 0.118.

Going from AGUUCACACAGGGAGCUCCAGCACAGUGAAAUGGACAGAAGGGCAUCGCAA [G5C C6A U7C G8A U10A G46U A47C] to AGUUCACACAGGGAGCUCCAGCACAGUGAAAUGGACAGAAGGGCAUUGCAA [G5C C6A U7C G8A U10A G46U A47U], the “exon inclusion enrichment index” value falls from 0.501 to 0.206.

First: AGUUCACACAGGGAGCUCCAGCACAGUGAAAUGUACAGAAGGGCAGAGCAA [G5C C6A U7C G8A U10A G34U]
Second: AGUUCACACAGGGAGCUCCAGCACAGUGAAAUGCACAGAAGGGCAGAGCAA [G5C C6A U7C G8A U10A G34C]
The “exon inclusion enrichment index” value of the first is lower: 0.012 for the first, 0.0202 for the second.

First: AGUUCACACAGGGAGCUCCAGCACAGUGAAAUGAACAGAAGGGCAGAGCAA [G5C C6A U7C G8A U10A G34A]
Second: AGUUCACACAGGGAGCUCCAGCACAGUUUAAUGGACAGAAGGGCAGAGCAA [G5C C6A U7C G8A U10A G28U A29U]
The “exon inclusion enrichment index” value of the first is higher: 0.0333 for the first, 0.00263 for the second.

Going from AGUUCACACAGGGAGCUCCAGCACAGUUGAAUGGACAGAAGGGCAGAGCAA [G5C C6A U7C G8A U10A G28U A29G] to AGUUCACACAGGGAGCUCCAGCACAGUGAAAUCUACAGAAGGGCAGAGCAA [G5C C6A U7C G8A U10A G33C G34U], the “exon inclusion enrichment index” value falls from 0.0731 to 0.0659.

Compared with AGUUCACACAGGGAGCUCCAGCACAGUGAAAUCCACAGAAGGGCAGAGCAA [G5C C6A U7C G8A U10A G33C G34C], AGUUCACACAGGGAGCUCCAGCACAGUGAAAUCAACAGAAGGGCAGAGCAA [G5C C6A U7C G8A U10A G33C G34A] is higher in “exon inclusion enrichment index” value: 0.0275 for the first, 0.0324 for the second.

First: AGUUCACACAGGGAGCUCCAGCACAGUGAAAUGACCAGAAGGGCAGAGCAA [G5C C6A U7C G8A U10A G34A A35C]
Second: AGUUCACACAGGGAGCUCCAGCACAGUGAAAUGAGCAGAAGGGCAGAGCAA [G5C C6A U7C G8A U10A G34A A35G]
The “exon inclusion enrichment index” value of the first is higher: 0.0814 for the first, 0.0257 for the second.

First: AGUUCACACAGGGAGCUCCAGCACAGUGAAAUGAUCAGAAGGGCAGAGCAA [G5C C6A U7C G8A U10A G34A A35U]
Second: AGUUCACACAGGGAGCCUCAGCACAGUGAAAUGGACAGAAGGGCAGAGCAA [G5C C6A U7C G8A U10A U17C C18U]
The “exon inclusion enrichment index” value of the first is lower: 0.0204 for the first, 0.0619 for the second.

First: AGUUCACACAGGGAGCCGCAGCACAGUGAAAUGGACAGAAGGGCAGAGCAA [G5C C6A U7C G8A U10A U17C C18G]
Second: AGUUCACACAGGGAGCCACAGCACAGUGAAAUGGACAGAAGGGCAGAGCAA [G5C C6A U7C G8A U10A U17C C18A]
The “exon inclusion enrichment index” value of the first is higher: 0.166 for the first, 0.063 for the second.

First: AGUUCACACAGGGAGCUCCAGCACAGUGAAAUGGACAGAAUCGCAGAGCAA [G5C C6A U7C G8A U10A G41U G42C]
Second: AGUUCACACAGGGAGCUCCAGCACAGUGAAAUGGACAGAAUUGCAGAGCAA [G5C C6A U7C G8A U10A G41U G42U]
The “exon inclusion enrichment index” value of the first is higher: 0.369 for the first, 0.0854 for the second.

Compared with AGUUCACACAGGGAGCUCCAGCACAGUGAAAUGGACAGAAUAGCAGAGCAA [G5C C6A U7C G8A U10A G41U G42A], AGUUCACACAGGGAGCUCCAGCACAGUGAAAUGGACAGAAGAGCAGAGCAA [G5C C6A U7C G8A U10A G42A] is higher in “exon inclusion enrichment index” value: 0.0336 for the first, 0.428 for the second.

First: AGUUCACACAGGGAGCUCCAGCACAGUGAAAUGGACAGAAGCGCAGAGCAA [G5C C6A U7C G8A U10A G42C]
Second: AGUUCACACAGGGAGCUCCAGCACAGUGAAAUGGACAGAAGUGCAGAGCAA [G5C C6A U7C G8A U10A G42U]
The “exon inclusion enrichment index” value of the first is higher: 0.501 for the first, 0.154 for the second.

First: AGUUCACACAGGGAGCGGCAGCACAGUGAAAUGGACAGAAGGGCAGAGCAA [G5C C6A U7C G8A U10A U17G C18G]
Second: AGUUCACACAGGGAGCGACAGCACAGUGAAAUGGACAGAAGGGCAGAGCAA [G5C C6A U7C G8A U10A U17G C18A]
The “exon inclusion enrichment index” value of the first is higher: 0.159 for the first, 0.109 for the second.

Going from AGUUCACACAGGGAGCGUCAGCACAGUGAAAUGGACAGAAGGGCAGAGCAA [G5C C6A U7C G8A U10A U17G C18U] to AGUUCACACAGGGAGCUCCAGCACAGUGAAAUGGACAGAAGAUCAGAGCAA [G5C C6A U7C G8A U10A G42A G43U], the “exon inclusion enrichment index” value rises from 0.0504 to 1.25.

First: AGUUCACACAGGGAGCUCCAGCACAGUGAAAUGGACAGAAGAACAGAGCAA [G5C C6A U7C G8A U10A G42A G43A]
Second: AGUUCACACAGGGAGCUCCAGCACAGUGAAAUGGACAGAAGACCAGAGCAA [G5C C6A U7C G8A U10A G42A G43C]
The “exon inclusion enrichment index” value of the first is lower: 1.43 for the first, 1.53 for the second.

Compared with AGUUCACACAGGGAGCUCCAGCACAGUGAAAUGGACAAAAGGGCAGAGCAA [G5C C6A U7C G8A U10A G38A], AGUUCACACAGGGAGCUCCAGCACAGUGAAAUGGACAUAAGGGCAGAGCAA [G5C C6A U7C G8A U10A G38U] is lower in “exon inclusion enrichment index” value: 0.0452 for the first, 0.0342 for the second.

Going from AGUUCACACAGGGAGCUCCAGCACAGUGAAAUGGACACAAGGGCAGAGCAA [G5C C6A U7C G8A U10A G38C] to AGUUCACACAGGGAGCUCCAGCACAGUGAAAUGGACAGAAGGGCAAAGCAA [G5C C6A U7C G8A U10A G46A], the “exon inclusion enrichment index” value rises from 0.0648 to 0.143.

Compared with AGUUCACACAGGGAGCUCCAGCACAGUGAAAUGGACAGAAGGGCACAGCAA [G5C C6A U7C G8A U10A G46C], AGUUCACACAGGGAGCUCCAGCACAGUGAAAUGGACAGAAGGGCAUAGCAA [G5C C6A U7C G8A U10A G46U] is lower in “exon inclusion enrichment index” value: 0.0718 for the first, 0.0644 for the second.

With AGUUCACACAGGGAGCUCCAGCACAGUGAAAUGUUCAGAAGGGCAGAGCAA [G5C C6A U7C G8A U10A G34U A35U] the “exon inclusion enrichment index” value was 0.00489.

From the RNAGym collection of RNA variant scans (doi:10.1101/gr.219683.116)
